Holding throughout (test): EMSA
Background: Mobility shift assays separate free from complexed probe on a gel.

Data set [1] has as its target T1, TWINKLE wt (lacks mitochondrial targeting sequence 1-42) (human, UniProt Q96RR1 43-684).
T1 sequence: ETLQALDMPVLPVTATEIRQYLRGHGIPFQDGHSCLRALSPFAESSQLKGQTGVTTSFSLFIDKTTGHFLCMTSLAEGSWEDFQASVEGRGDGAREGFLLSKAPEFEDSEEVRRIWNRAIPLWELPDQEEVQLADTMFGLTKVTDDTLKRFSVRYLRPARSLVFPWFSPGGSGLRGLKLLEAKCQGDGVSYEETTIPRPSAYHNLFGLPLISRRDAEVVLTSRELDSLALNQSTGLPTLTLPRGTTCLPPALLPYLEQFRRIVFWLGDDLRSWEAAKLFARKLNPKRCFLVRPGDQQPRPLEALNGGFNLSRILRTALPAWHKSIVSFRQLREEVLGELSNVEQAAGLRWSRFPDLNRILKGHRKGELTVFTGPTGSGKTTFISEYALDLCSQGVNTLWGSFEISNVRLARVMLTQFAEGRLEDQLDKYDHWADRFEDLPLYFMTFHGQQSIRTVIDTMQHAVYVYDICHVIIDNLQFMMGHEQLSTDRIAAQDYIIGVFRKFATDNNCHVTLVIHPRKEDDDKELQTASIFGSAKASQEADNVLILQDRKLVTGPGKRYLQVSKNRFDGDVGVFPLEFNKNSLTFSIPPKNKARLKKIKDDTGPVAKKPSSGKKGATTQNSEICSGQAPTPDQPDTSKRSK

For data set [2], the target named is T2, TWINKLE Δ372-684 (human, UniProt Q96RR1 43-371, del372-684).
T2 sequence: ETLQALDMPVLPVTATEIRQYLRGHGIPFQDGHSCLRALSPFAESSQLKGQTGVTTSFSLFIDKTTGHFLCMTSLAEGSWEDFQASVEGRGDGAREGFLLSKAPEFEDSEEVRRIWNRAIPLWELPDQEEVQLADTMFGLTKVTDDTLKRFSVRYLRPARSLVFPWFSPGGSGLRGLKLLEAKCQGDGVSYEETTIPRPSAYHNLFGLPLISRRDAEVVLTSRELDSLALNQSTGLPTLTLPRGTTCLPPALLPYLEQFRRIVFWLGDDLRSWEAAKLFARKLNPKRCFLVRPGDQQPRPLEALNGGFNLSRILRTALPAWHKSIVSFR

Data set [3] addresses T3, TWINKY (human, UniProt Q96RR1-2 43-582, del579-684).
T3 sequence: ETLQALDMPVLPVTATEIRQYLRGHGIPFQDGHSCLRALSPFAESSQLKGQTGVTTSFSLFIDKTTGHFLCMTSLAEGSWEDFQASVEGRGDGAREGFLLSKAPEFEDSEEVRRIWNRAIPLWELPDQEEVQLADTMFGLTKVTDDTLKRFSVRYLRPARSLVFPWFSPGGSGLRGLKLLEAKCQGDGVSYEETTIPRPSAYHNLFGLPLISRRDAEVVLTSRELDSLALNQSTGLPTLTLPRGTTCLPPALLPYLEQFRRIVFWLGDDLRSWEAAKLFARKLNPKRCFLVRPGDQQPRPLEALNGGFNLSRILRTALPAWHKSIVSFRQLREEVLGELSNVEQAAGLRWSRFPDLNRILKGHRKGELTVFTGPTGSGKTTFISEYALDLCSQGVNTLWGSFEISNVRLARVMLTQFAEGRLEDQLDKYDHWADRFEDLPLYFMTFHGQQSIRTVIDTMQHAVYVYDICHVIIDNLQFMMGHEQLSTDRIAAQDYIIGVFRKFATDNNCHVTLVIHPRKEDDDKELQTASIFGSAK

The target in data set [4] is T1, TWINKLE wt (lacks mitochondrial …). This is another data set of the same source.
Data set [5] concerns the target T4, TWINKLE Δ1-121 (human, UniProt Q96RR1 122-684, del1-121).
T4 sequence: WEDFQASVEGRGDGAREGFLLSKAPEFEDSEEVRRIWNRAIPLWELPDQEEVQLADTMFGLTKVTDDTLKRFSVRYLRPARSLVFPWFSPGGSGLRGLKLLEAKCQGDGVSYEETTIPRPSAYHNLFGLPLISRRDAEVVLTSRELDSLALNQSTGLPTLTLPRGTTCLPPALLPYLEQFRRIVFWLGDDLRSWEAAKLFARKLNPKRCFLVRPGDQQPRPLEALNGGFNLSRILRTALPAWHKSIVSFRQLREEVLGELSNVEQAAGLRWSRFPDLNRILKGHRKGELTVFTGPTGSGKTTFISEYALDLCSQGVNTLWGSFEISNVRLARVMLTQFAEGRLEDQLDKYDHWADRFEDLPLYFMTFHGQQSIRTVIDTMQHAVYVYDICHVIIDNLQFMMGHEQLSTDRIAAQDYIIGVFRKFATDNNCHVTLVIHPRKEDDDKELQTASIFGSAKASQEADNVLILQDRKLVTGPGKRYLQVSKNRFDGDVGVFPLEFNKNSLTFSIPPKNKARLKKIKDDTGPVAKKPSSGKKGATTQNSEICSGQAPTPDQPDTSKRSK

B1: ds15 (dsDNA)
DNA 1: CTCTAGACTCGACCG
DNA 2: CGGTCGAGTCTAGAG
Consider B1, for which the binding result in data set [1] is listed as “binds”. TTTTTTTTTTTTTTT (ssDNA) [ss15 poly-dT]: the binding result in data set [1] was “no binding”. As usually defined, the Kd is the free concentration of one partner at which half of the binding sites on the other are occupied at equilibrium, for simple one-to-one binding. A lower Kd goes with higher affinity. In the case of TTTTTTTTTTTTTTTTTTTTTTTTTTTTTT (ssDNA) [ss30 poly-dT], the binding result in data set [2] and in data set [3] was “no binding” in each case. Also, the Kd in data set [4] was about 5 nM.

B2: ds45 (dsDNA)
DNA 1: TGGCACGACAGGTTTCCCGACTGGAAAGCGGGCAGTCAGCTCTAG
DNA 2: CTAGAGCTGACTGCCCGCTTTCCAGTCGGGAAACCTGTCGTGCCA
As for B2, the binding result in data set [1] is given as “binds”. Same read-out and setting: the same measure for TTTTTTTTTTTTTTTTTTTTTTTTTTTTTTTTTTTTTTTTTTTTT (ssDNA) [ss45 poly-dT]: “binds”.

B3: ds30 (dsDNA)
DNA 1: TGGCACGACAGGTTTCCCGACTGGAAAGCG
DNA 2: CGCTTTCCAGTCGGGAAACCTGTCGTGCCA
Consider B3, for which the values for the binding result in data set [2], in data set [3] and in data set [5] were “no binding”, “no binding” and “binds”, respectively. Moreover, the equilibrium dissociation constant (Kd) in data set [4] was about 5 nM.

The values above are taken from PMC2241861.
